Here are results for 43 variants from the Human Domainome abundance scans (Beltran et al. 2025).

± gives the uncertainty stated by the source.

B1: Kinesin-like protein KIF16B, residues 1213 to 1273; numbered along this chain, Q96L93 (parent)
chain: ETWTVFRRYSRFREMHKTLKLKYAELAALEFPPKKLFGNKDERVIAERRSHLEKYLRDFFS

The variants in this data set derive from B1. Nature of the data set: abundance fitness (aPCA) (normalised: wild type 0, dead -1); higher = more abundant; growth selection in yeast, the domain comes from the species named. The settings on record: Homo sapiens.
Consider ETWTVFRRYSVFREMHKTLKLKYAELAALEFPPKKLFGNKDERVIAERRSHLEKYLRDFFS [R11V], for which the abundance fitness amounted to 0.246 ± 0.18.
On to ETWTVFRRYSCFREMHKTLKLKYAELAALEFPPKKLFGNKDERVIAERRSHLEKYLRDFFS [R11C], for which the abundance fitness worked out at 0.166 ± 0.13.
With ETWTVFRRYSYFREMHKTLKLKYAELAALEFPPKKLFGNKDERVIAERRSHLEKYLRDFFS [R11Y], the abundance fitness was -0.154 ± 0.29.
To ETWTVFRRYSPFREMHKTLKLKYAELAALEFPPKKLFGNKDERVIAERRSHLEKYLRDFFS [R11P] belongs -0.133 ± 0.13.
The same measure for ETWTVFRRYSWFREMHKTLKLKYAELAALEFPPKKLFGNKDERVIAERRSHLEKYLRDFFS [R11W]: 0.205 ± 0.066; for ETWTVFRRYSHFREMHKTLKLKYAELAALEFPPKKLFGNKDERVIAERRSHLEKYLRDFFS [R11H]: -0.112 ± 0.13; for ETWTVFRRYSEFREMHKTLKLKYAELAALEFPPKKLFGNKDERVIAERRSHLEKYLRDFFS [R11E]: -0.487 ± 0.081.
On to ETWTVFRRYSTFREMHKTLKLKYAELAALEFPPKKLFGNKDERVIAERRSHLEKYLRDFFS [R11T], for which the abundance fitness is -0.096 ± 0.084.
The same measure for ETWTVFRRYSDFREMHKTLKLKYAELAALEFPPKKLFGNKDERVIAERRSHLEKYLRDFFS [R11D]: -0.231 ± 0.17.
For the variant ETWTVFRRYSLFREMHKTLKLKYAELAALEFPPKKLFGNKDERVIAERRSHLEKYLRDFFS [R11L], the abundance fitness was -0.059 ± 0.06.
The same measure for ETWTVFRRYSSFREMHKTLKLKYAELAALEFPPKKLFGNKDERVIAERRSHLEKYLRDFFS [R11S]: 0.09 ± 0.083; for ETWTVFRRYSAFREMHKTLKLKYAELAALEFPPKKLFGNKDERVIAERRSHLEKYLRDFFS [R11A]: 0.206 ± 0.12.
To ETWTVFRRYSMFREMHKTLKLKYAELAALEFPPKKLFGNKDERVIAERRSHLEKYLRDFFS [R11M] belongs 0.423 ± 0.19; to ETWTVFRRYSNFREMHKTLKLKYAELAALEFPPKKLFGNKDERVIAERRSHLEKYLRDFFS [R11N], -0.122 ± 0.3; to ETWTVFRRYSGFREMHKTLKLKYAELAALEFPPKKLFGNKDERVIAERRSHLEKYLRDFFS [R11G], -0.03 ± 0.042.
The same measure for ETWTVFRRYSRFREQHKTLKLKYAELAALEFPPKKLFGNKDERVIAERRSHLEKYLRDFFS [M15Q]: -1.09 ± 0.36; for ETWTVFRRYSRFREAHKTLKLKYAELAALEFPPKKLFGNKDERVIAERRSHLEKYLRDFFS [M15A]: -0.044 ± 0.078; for ETWTVFRRYSRFRERHKTLKLKYAELAALEFPPKKLFGNKDERVIAERRSHLEKYLRDFFS [M15R]: -1.09 ± 0.15.
Take ETWTVFRRYSRFRETHKTLKLKYAELAALEFPPKKLFGNKDERVIAERRSHLEKYLRDFFS [M15T]: the abundance fitness was -0.455 ± 0.095.
As to ETWTVFRRYSRFREEHKTLKLKYAELAALEFPPKKLFGNKDERVIAERRSHLEKYLRDFFS [M15E], the abundance fitness is -1.09 ± 0.17.
To ETWTVFRRYSRFREGHKTLKLKYAELAALEFPPKKLFGNKDERVIAERRSHLEKYLRDFFS [M15G] belongs -0.736 ± 0.076; to ETWTVFRRYSRFREPHKTLKLKYAELAALEFPPKKLFGNKDERVIAERRSHLEKYLRDFFS [M15P], -0.993 ± 0.26.
The same measure for ETWTVFRRYSRFREWHKTLKLKYAELAALEFPPKKLFGNKDERVIAERRSHLEKYLRDFFS [M15W]: 0.229 ± 0.054; for ETWTVFRRYSRFREVHKTLKLKYAELAALEFPPKKLFGNKDERVIAERRSHLEKYLRDFFS [M15V]: 0.215 ± 0.057; for ETWTVFRRYSRFRESHKTLKLKYAELAALEFPPKKLFGNKDERVIAERRSHLEKYLRDFFS [M15S]: -0.908 ± 0.24.
ETWTVFRRYSRFREFHKTLKLKYAELAALEFPPKKLFGNKDERVIAERRSHLEKYLRDFFS [M15F]: the abundance fitness is -0.095 ± 0.18.
The same measure for ETWTVFRRYSRFRELHKTLKLKYAELAALEFPPKKLFGNKDERVIAERRSHLEKYLRDFFS [M15L]: 0.265 ± 0.074; for ETWTVFRRYSRFREMDKTLKLKYAELAALEFPPKKLFGNKDERVIAERRSHLEKYLRDFFS [H16D]: -0.835 ± 0.18; for ETWTVFRRYSRFREMQKTLKLKYAELAALEFPPKKLFGNKDERVIAERRSHLEKYLRDFFS [H16Q]: -0.194 ± 0.083.
The same measure for ETWTVFRRYSRFREMAKTLKLKYAELAALEFPPKKLFGNKDERVIAERRSHLEKYLRDFFS [H16A]: 0.135 ± 0.047; for ETWTVFRRYSRFREMEKTLKLKYAELAALEFPPKKLFGNKDERVIAERRSHLEKYLRDFFS [H16E]: -0.842 ± 0.27; for ETWTVFRRYSRFREMKKTLKLKYAELAALEFPPKKLFGNKDERVIAERRSHLEKYLRDFFS [H16K]: 0.062 ± 0.17.
The same measure for ETWTVFRRYSRFREMNKTLKLKYAELAALEFPPKKLFGNKDERVIAERRSHLEKYLRDFFS [H16N]: -0.353 ± 0.31; for ETWTVFRRYSRFREMMKTLKLKYAELAALEFPPKKLFGNKDERVIAERRSHLEKYLRDFFS [H16M]: 0.311 ± 0.061.
With ETWTVFRRYSRFREMCKTLKLKYAELAALEFPPKKLFGNKDERVIAERRSHLEKYLRDFFS [H16C], the abundance fitness was determined as 0.016 ± 0.12.
To ETWTVFRRYSRFREMFKTLKLKYAELAALEFPPKKLFGNKDERVIAERRSHLEKYLRDFFS [H16F] belongs -0.044 ± 0.14; to ETWTVFRRYSRFREMIKTLKLKYAELAALEFPPKKLFGNKDERVIAERRSHLEKYLRDFFS [H16I], 0.452 ± 0.11.
To ETWTVFRRYSRFREMLKTLKLKYAELAALEFPPKKLFGNKDERVIAERRSHLEKYLRDFFS [H16L] belongs 0.379 ± 0.039; to ETWTVFRRYSRIREMHKTLKLKYAELAALEFPPKKLFGNKDERVIAERRSHLEKYLRDFFS [F12I], 0.068 ± 0.14; to ETWTVFRRYSRVREMHKTLKLKYAELAALEFPPKKLFGNKDERVIAERRSHLEKYLRDFFS [F12V], 0.047 ± 0.067.
The same measure for ETWTVFRRYSRGREMHKTLKLKYAELAALEFPPKKLFGNKDERVIAERRSHLEKYLRDFFS [F12G]: -0.597 ± 0.083; for ETWTVFRRYSRSREMHKTLKLKYAELAALEFPPKKLFGNKDERVIAERRSHLEKYLRDFFS [F12S]: -0.642 ± 0.11.
With ETWTVFRRYSRTREMHKTLKLKYAELAALEFPPKKLFGNKDERVIAERRSHLEKYLRDFFS [F12T], the abundance fitness was -0.907 ± 0.45.
